The text below walks through data of patent US20090170069A1.

This experiment concerns the target amyloid β-peptide Aβ40, aggregating sample (soluble oligomers, early intermediates) (UniProt P05067). The experiment is described as follows: cell-based or functional assay.

B1: TJ10 (beta-sheet mini protein) (designed binder)
chain: MAQTFWLSIQGKTLYWQIRIYAIDAAEAEKIFKQYANDNGIDGEWTYDDATKTFTVTE
For B1, the ThT fluorescence: share of Aβ40 aggregated after 18 h is 38%.
